Results on 1 molecule are retold here after patent publication US20240384250A1, “FIBROBLAST GROWTH FACTOR 23 MODULATING COMPOUNDS” (THE UAB RESEARCH FOUNDATION, priority 2021, published 2024).

The target in experiment [1] is T1, FGF23 (Homo sapiens, UniProt Q9GZV9).
T1 construct: purchased R&D Systems 2604FG025/CF (human) or 2629FG025/CF (mouse)
T1 sequence (Q9GZV9 25-251): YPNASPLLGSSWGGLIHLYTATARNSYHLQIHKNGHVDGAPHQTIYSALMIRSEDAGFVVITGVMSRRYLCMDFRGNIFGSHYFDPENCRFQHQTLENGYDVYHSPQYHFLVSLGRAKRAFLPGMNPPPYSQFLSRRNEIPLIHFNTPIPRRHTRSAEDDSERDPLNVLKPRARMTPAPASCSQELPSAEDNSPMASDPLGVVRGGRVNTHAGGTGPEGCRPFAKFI
In words: Plate-based binding assay, FGF23 coated, FLAG-sKL detected with anti-FLAG HRP. The settings on record: 100 ng FGF23 coated. The protocol:
(§1) Proteins were coated on 96-well plates (MaxiSorp; 439454, Thermo Fisher Scientific), and proteins were added to wells in 100 μl of enzyme-linked immunosorbent assay (ELISA) coating buffer (E107, Bethyl Laboratories) with a lid placed overtop and incubated at 4° C. overnight. Plates were washed 5× with 350 μl of assay buffer (50 mM Tris [pH 7.4], 200 mM NaCl, 0.01% Tween 20) on a 50 TS microplate washer (BioTek). Plates were blocked for 1 hour in 200 μl of assay buffer with 0.5% BSA. Plates were washed as before, and proteins were incubated on plates in 100 μl of assay buffer with 0.5% BSA. Proteins or heparin was incubated in orders described in the respective figure legends. Assays using FLAG-tag-based detection were incubated with anti-FLAG coupled to HRP at 1:20,000, and assays using Fc detection were incubated with anti-human Fc coupled to HRP at 1:10,000. Plates were washed as above, and 100 μl of 3,3′,5,5′-tetramethylbenzidine (TMB) substrate (E102, Bethyl Laboratories) was added for 15 to 20 minutes until positive wells developed a dark blue color. Reactions were stopped with ELISA stop solution (E115, Bethyl Laboratories) and analyzed using the Synergy HI plate reader (BioTek) at 450 nm wavelength. […] As a control to remove background absorbance values, wells were coated with an equal amount of BSA to match the amount of protein coated in experimental wells and treated the same as experimental wells. To study the effects of sKL on the binding between paracrine FGFs and FGFRs, plates were run as above except coated with paracrine FGFs. Fc-FGFR1 was preincubated with sKL or vehicle for 60 minutes, and then the combination was added to wells and the assay was run as before.

Experiment [2] concerns the target T2, FGFR1c (Homo sapiens, UniProt P11362).
T2 construct: Fc-coupled FGFR ectodomains were immobilized on protein A/G beads; purchased R&D Systems 658FR050
T2 sequence (P11362 22-376 limits assumed): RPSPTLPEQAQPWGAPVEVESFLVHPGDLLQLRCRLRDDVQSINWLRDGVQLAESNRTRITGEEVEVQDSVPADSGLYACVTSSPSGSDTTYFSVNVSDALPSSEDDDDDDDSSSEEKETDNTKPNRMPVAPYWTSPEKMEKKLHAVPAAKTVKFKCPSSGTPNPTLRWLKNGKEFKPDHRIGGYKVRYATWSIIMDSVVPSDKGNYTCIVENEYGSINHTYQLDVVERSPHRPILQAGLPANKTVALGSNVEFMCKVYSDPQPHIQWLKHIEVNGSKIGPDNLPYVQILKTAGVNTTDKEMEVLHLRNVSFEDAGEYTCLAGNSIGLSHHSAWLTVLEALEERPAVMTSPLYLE
Kind of experiment: Plate-based binding assay, FGFR1c coated, FLAG-sKL detected with anti-FLAG HRP. The settings on record: purified protein. The protocol: as §1

B1: sKL-N694Q: sKL variant with glycosylation site Asn694 substituted by Gln (protein)
chain: EPGDGAQTWARFSRPPAPEAAGLFQGTFPDGFLWAVGSAAYQTEGGWQQHGKGASIWDTFTHHPLAPPGDSRNASLPLGAPSPLQPATGDVASDSYNNVFRDTEALRELGVTHYRFSISWARVLPNGSAGVPNREGLRYYRRLLERLRELGVQPVVTLYHWDLPQRLQDAYGGWANRALADHFRDYAELCFRHFGGQVKYWITIDNPYVVAWHGYATGRLAPGIRGSPRLGYLVAHNLLLAHAKVWHLYNTSFRPTQGGQVSIALSSHWINPRRMTDHSIKECQKSLDFVLGWFAKPVFIDGDYPESMKNNLSSILPDFTESEKKFIKGTADFFALCFGPTLSFQLLDPHMKFRQLESPNLRQLLSWIDLEFNHPQIFIVENGWFVSGTTKRDDAKYMYYLKKFIMETLKAIKLDGVDVIGYTAWSLMDGFEWHRGYSIRRGLFYVDFLSQDKMLLPKSSALFYQKLIEKNGFPPLPENQPLEGTFPCDFAWGVVDNYIQVDTTLSQFTDLNVYLWDVHHSKRLIKVDGVVTKKRKSYCVDFAAIQPQIALLQEMHVTHFRFSLDWALILPLGNQSQVNHTILQYYRCMASELVRVNITPVVALWQPMAPNQGLPRLLARQGAWENPYTALAFAEYARLCFQELGHHVKLWITMNEPYTRQMTYSAGHNLLKAHALAWHVYNEKFRHAQNGKISIALQADWIEPACPFSQKDKEVAERVLEFDIGWLAEPIFGSGDYPWVMRDWLNQRNNFLLPYFTEDEKKLIQGTFDFLALSHYTTILVDSEKEDPIKYNDYLEVQEMTDITWLNSPSQVAVVPWGLRKVLNWLKFKYGDLPMYIISNGIDDGLHAEDDQLRVYYMQNYINEALKAHILDGINLCGYFAYSFNDRTAPRFGLYRYAADQFEPKASMKHYRKIIDSNGFPGPETLERFCPEEFTVCTECSFFHTRKS
modifications: left off: small tags and cut ends
notes: sKL variant with glycosylation site Asn694 substituted by Gln
Turning to B1, the “FGF23 binding of sKL variants in HEK293 cell media compared with wildtype sKL” value in experiment [1] is reported as “increased FGF23 binding”. Moreover, the “binding affinity for FGFR1c compared with wildtype sKL” value in experiment [2] is given as “does not affect”.
